According to patent US20210100916A1, “PREPARATION AND USE OF MITOCHONDRION-TARGETING SELF-ASSEMBLED PROTEIN NANOPARTICLE” (PEKING UNIVERSITY, priority 2018, published 2021):

Experiments:
[1] = system: U87MG cells; assay: ROS content in cells (DCFH-DA probe, confocal imaging); assay type: cell-based; details: 6 μmo/L, 24 hours, 10 μmol/L DCFH-DA, FIGS. 6 and 7
Description: Taking U87MG cell line as an example, 5×10^4 U87MG cells were added to a confocal dish and incubated overnight at 37° C. and 5% CO2; GSTP1-MT3(Fe^2+) and GSTP1-MT3(Co^2+) prepared in Example 3 were added to it (the final concentration was 6 μmo/L) and incubated again for 24 hours, and then washed with PBS for three times; then, 10 μmol/L DCFH-DA (ROS probe) was added, incubated at 37° C. for 30 minutes, and washed with PBS for three times; finally, confocal imaging was performed, and statistics was performed on the ROS content.

[2] = Body weight / toxicity during breast cancer treatment; assay type: in vivo, Balb/c mice; details: 100 μL of 30 pmol/L tail vein, 5 injections, vs PBS
Description: Taking the breast cancer of Balb/c mice as an example, 3×10^6 4T1 (stable transfected Luciferase) breast cancer cells were inoculated into Balb/c mice; when the tumor grew to 50-70 mm^3, 100 μL of 30 pmol/L GSTP1-MT3(Co^2+) was injected through the tail vein as the experimental group, and 100μL of PBS was injected through the tail vein as the control group. The injection was performed once every two days, that is, the tail vein injection was performed on the 3rd, 5th, 7th, 9th and 11th day of the experiment, respectively. A total of 5 injections were given. The weights of the mice and the size of the tumor were recorded at different time points.

For “GSTP1-MT3(Co^2+): Self-assembled protein nanoparticle of MT3-GGGGS-GSTP1 fusion protein (SEQ ID NO: 4) induced by Co^2+”, which “ROS content in cells” value [1] is on record?
Its value is “significantly increase”.

What about the “body weights, experimental group vs control group” value [2] of the same substance?
The value was “not much different”.

And the “toxic or side effects on mice” value [2]?
Its value is “no obvious toxic or side effects”.
